From the supplement of paper PMC10567573

B1: VDR (parent)
chain: VTLELSQLSMLPHLADLVSYSIQK

Variants of: B1
Assay: protein stability index of a GFP-peptide fusion (GPS, HEK-293T) (PSI 1-6); higher = more stable
Conditions: c terminus: a fixed tail appended
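Also: lentivirally expressed fusions sorted by FACS into six bins by GFP to DsRed ratio, PSI derived from sequencing read proportions per bin multiplied by bin number.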

First: L5E
Second: L5Q
The protein stability index of the first is lower: 1.71 for the first, 2.01 for the second.

Going from L5D to L5P, the protein stability index falls from 2.1 to 1.86.

Compared with L5Y, Q7Y is lower in protein stability index: 3.55 for the first, 2.81 for the second.

First: Q7N
Second: Q7V
The protein stability index of the first is higher: 2.84 for the first, 2.68 for the second.

Going from Q7A to Q7M, the protein stability index rises from 3.54 to 3.99.

Compared with Q7D, Q7H is higher in protein stability index: 2.45 for the first, 3.22 for the second.

Going from Q7T to Q7S, the protein stability index falls from 3.45 to 2.99.

Compared with Q7I, Q7K is higher in protein stability index: 2.06 for the first, 2.59 for the second.

Going from Q7C to Q7W, the protein stability index rises from 2.21 to 2.56.

Going from Q7L to Q7E, the protein stability index falls from 3.66 to 3.06.

Compared with Q7G, T2M is higher in protein stability index: 1.33 for the first, 2.16 for the second.

First: T2L
Second: T2W
The protein stability index of the first is lower: 1.75 for the first, 2.48 for the second.

Going from T2C to T2Q, the protein stability index falls from 4.12 to 2.22.

Going from T2I to T2N, the protein stability index falls from 4.5 to 3.11.

First: T2P
Second: T2E
The protein stability index of the first is lower: 1.42 for the first, 2.22 for the second.

Going from T2K to T2H, the protein stability index falls from 2.4 to 2.06.

First: T2G
Second: T2V
The protein stability index of the first is lower: 1.76 for the first, 3.63 for the second.

Going from T2D to T2S, the protein stability index rises from 1.6 to 3.12.

First: S19H
Second: S19F
The protein stability index of the first is lower: 2.79 for the first, 3.49 for the second.

First: S19Y
Second: S19A
The protein stability index of the first is higher: 2.42 for the first, 2.23 for the second.

Going from S19M to S19K, the protein stability index falls from 3.08 to 1.68.

First: S19V
Second: S19N
The protein stability index of the first is higher: 4.3 for the first, 3.84 for the second.

First: S19R
Second: S19G
The protein stability index of the first is lower: 3.25 for the first, 4.13 for the second.

Going from S19E to S19I, the protein stability index rises from 2.05 to 2.76.

Going from S19W to I22W, the protein stability index falls from 3.07 to 1.98.

Going from I22F to I22Y, the protein stability index rises from 2.12 to 3.63.

Going from I22A to I22V, the protein stability index rises from 1.56 to 4.61.

Compared with I22Q, I22H is lower in protein stability index: 2.74 for the first, 2.34 for the second.

Going from I22S to I22N, the protein stability index rises from 1.79 to 2.32.

Going from I22R to I22G, the protein stability index rises from 2.12 to 2.47.

Compared with I22K, I22M is higher in protein stability index: 1.72 for the first, 3.49 for the second.

Going from I22P to L8H, the protein stability index rises from 1.55 to 2.92.

First: L8S
Second: L8E
The protein stability index of the first is higher: 2.16 for the first, 1.65 for the second.

First: L8N
Second: L8Y
The protein stability index of the first is lower: 2.35 for the first, 2.47 for the second.

Going from L8V to L8C, the protein stability index falls from 3.88 to 2.43.

Going from L8M to L8T, the protein stability index falls from 3.27 to 2.85.

First: L8P
Second: L8G
The protein stability index of the first is higher: 2.33 for the first, 1.62 for the second.

Compared with L8R, L8A is higher in protein stability index: 2.25 for the first, 2.74 for the second.

Going from L17R to L17G, the protein stability index falls from 1.62 to 1.33.

First: L17E
Second: L17C
The protein stability index of the first is lower: 1.87 for the first, 3.09 for the second.

Compared with L17P, L17D is lower in protein stability index: 2.77 for the first, 1.7 for the second.

Compared with L17A, L17S is lower in protein stability index: 2.04 for the first, 1.6 for the second.

First: S21R
Second: S21D
The protein stability index of the first is lower: 2.13 for the first, 3.11 for the second.

Compared with S21P, S21K is higher in protein stability index: 1.05 for the first, 2.89 for the second.

First: S21V
Second: S21F
The protein stability index of the first is higher: 3.87 for the first, 3.64 for the second.

Going from S21M to S21N, the protein stability index rises from 1.43 to 3.47.

Compared with S21Q, S21H is higher in protein stability index: 1.43 for the first, 2.5 for the second.

First: S21E
Second: E4C
The protein stability index of the first is lower: 2.84 for the first, 3.83 for the second.

Going from E4Y to E4H, the protein stability index falls from 2.58 to 2.02.

First: E4K
Second: E4A
The protein stability index of the first is higher: 3.75 for the first, 2.69 for the second.

Compared with E4D, E4I is lower in protein stability index: 3.44 for the first, 3.27 for the second.

Going from E4P to E4V, the protein stability index falls from 3.67 to 3.1.

Compared with E4M, E4G is lower in protein stability index: 3.22 for the first, 2.6 for the second.

Compared with E4Q, E4L is higher in protein stability index: 3.55 for the first, 4.64 for the second.

Compared with E4N, Y20A is lower in protein stability index: 2.66 for the first, 1.94 for the second.

Compared with Y20F, Y20N is lower in protein stability index: 2.41 for the first, 1.81 for the second.

First: Y20P
Second: Y20S
The protein stability index of the first is lower: 2.3 for the first, 2.92 for the second.

First: Y20G
Second: Y20K
The protein stability index of the first is higher: 2.73 for the first, 2.33 for the second.

Compared with Y20M, Y20T is lower in protein stability index: 2.91 for the first, 2.31 for the second.

First: Y20I
Second: Y20C
The protein stability index of the first is higher: 3.08 for the first, 2.66 for the second.

Going from Y20Q to Y20D, the protein stability index falls from 3.29 to 1.35.

Compared with Y20H, Y20E is lower in protein stability index: 3.24 for the first, 2.97 for the second.

Compared with Y20L, L11M is lower in protein stability index: 3.69 for the first, 2.38 for the second.

Compared with L11I, L11W is lower in protein stability index: 3.11 for the first, 2.6 for the second.

First: L11G
Second: L11E
The protein stability index of the first is higher: 1.55 for the first, 1.52 for the second.

First: L11K
Second: L11P
The protein stability index of the first is higher: 3.55 for the first, 3.08 for the second.

Compared with L11N, L11C is higher in protein stability index: 1.71 for the first, 2.65 for the second.

First: L11V
Second: L11D
The protein stability index of the first is higher: 2.06 for the first, 1.23 for the second.

Going from L11Y to L11H, the protein stability index falls from 3.22 to 3.18.

Going from L11T to L11A, the protein stability index falls from 2.73 to 1.62.

Going from L11S to Q23C, the protein stability index rises from 2.19 to 2.33.

First: Q23E
Second: Q23F
The protein stability index of the first is lower: 3.09 for the first, 4.15 for the second.

First: Q23L
Second: Q23P
The protein stability index of the first is higher: 3.08 for the first, 1.68 for the second.

Compared with Q23G, Q23H is higher in protein stability index: 2.84 for the first, 5.2 for the second.

Going from Q23T to Q23N, the protein stability index falls from 2.74 to 2.07.

Compared with Q23W, Q23I is higher in protein stability index: 1.56 for the first, 2.56 for the second.

Going from Q23V to Q23K, the protein stability index rises from 2.59 to 3.23.

Going from D16G to D16S, the protein stability index rises from 1.67 to 2.82.

Going from D16P to D16R, the protein stability index rises from 3.09 to 3.75.

Going from D16F to D16H, the protein stability index falls from 3.5 to 3.

First: D16V
Second: D16T
The protein stability index of the first is higher: 3.99 for the first, 2.91 for the second.

Compared with D16Q, D16L is lower in protein stability index: 3.98 for the first, 3.77 for the second.

Going from D16K to D16N, the protein stability index falls from 4.49 to 3.07.

For D16A, the protein stability index was 3.1.
